Experimental findings from PMC4200255 are described below.

The assay addresses recombinant purified protein HSP70-1A (UniProt P0DMV8).
Sequence of UniProt P0DMV8 (P0DMV8 whole entry): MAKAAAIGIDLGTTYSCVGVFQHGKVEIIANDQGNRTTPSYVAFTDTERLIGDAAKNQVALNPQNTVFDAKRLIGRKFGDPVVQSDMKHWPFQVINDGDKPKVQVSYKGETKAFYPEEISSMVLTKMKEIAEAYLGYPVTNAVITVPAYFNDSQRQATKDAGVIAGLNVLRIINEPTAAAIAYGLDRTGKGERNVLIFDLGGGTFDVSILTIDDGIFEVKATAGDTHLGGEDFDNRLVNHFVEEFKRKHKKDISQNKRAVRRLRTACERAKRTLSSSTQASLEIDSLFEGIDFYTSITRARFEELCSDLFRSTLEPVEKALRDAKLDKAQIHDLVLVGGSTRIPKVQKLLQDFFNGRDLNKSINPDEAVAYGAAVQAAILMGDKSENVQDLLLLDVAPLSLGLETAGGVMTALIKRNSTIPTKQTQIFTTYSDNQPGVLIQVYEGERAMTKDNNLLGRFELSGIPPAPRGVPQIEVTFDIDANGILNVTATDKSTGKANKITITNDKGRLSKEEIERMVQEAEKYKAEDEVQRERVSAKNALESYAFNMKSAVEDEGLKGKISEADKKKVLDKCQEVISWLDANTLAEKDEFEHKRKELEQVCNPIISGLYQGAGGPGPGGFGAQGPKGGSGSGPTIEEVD

For the molecule TPGTFKERIIKSITPETPTE [20-mer peptide of the serotonin transporter C terminus (lacks the first 4 amino acids RLII)], the stimulation of the ATPase activity of 0.7 μM HSP70 by 500 μM peptide (malachite green, 37 °C) came out at 2 fold. Then RLIITPGTFKERIIKSITPETPTE [24-mer peptide of the serotonin transporter C terminus], with 4 fold.
